The record followed here is the supplement of paper PMC12042874.

± gives the uncertainty stated by the source.

This series in a line: amyloid nucleation score (Sup35N fusion, yeast selection) (log enrichment); library NNK1; higher = more nucleation; inactive = no reads after selection. A digest of the protocol: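 For the nucleation score, DiMSum gave the log enrichment of output over input reads, centred on the mode score of non-aggregating sequences. Psi-negative yeast expressing Sup35N fused to peptides of 20 random codons were induced with 100 μM copper sulfate for 24 hours and grown 7 days at 30°C on medium lacking adenine and uracil. Input and output plasmid inserts were Illumina-sequenced, and sequences with under 100 input reads were excluded.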
Regarding YSVINWFMVAYYRADRLVNG, the amyloid nucleation score was -0.144 ± 1.2.
YSVWVYRLMRYELNVTFCR yielded an amyloid nucleation score of 0.093 ± 0.2.
In the case of YSYFSPDFRRSQHQGGVCPA, the amyloid nucleation score turned out to be 0.329 ± 0.53.
For the substance YSYSGVRMVVILNWHGKWWC, the amyloid nucleation score amounted to 4.87 ± 0.096.
The substance YSYSVAV came in with an amyloid nucleation score of 0.38 ± 0.51.
YTCSVGDVMINDSETSSKAG had an amyloid nucleation score of 0.053 ± 0.24.
On to YTEETYKLCVWMSDRSIRLN, for which the amyloid nucleation score amounted to 0.001 ± 0.85.
As to YTFNVVCILTTEYWGNGWLY, the amyloid nucleation score was 2.91 ± 0.16.
As for YTHDIRSVGGLQESGLGVWV, the amyloid nucleation score was -0.094 ± 1.1.
Consider YTQSWQ, for which the amyloid nucleation score is -0.309 ± 0.51.
Substance YVCKIYFHDFDRNMGILEDH had an amyloid nucleation score of 1.13 ± 0.85.
Consider YVDSSI, for which the amyloid nucleation score is -0.08 ± 0.97.
In turn, YVDVSSS registered an amyloid nucleation score of 0.834 ± 0.61.
Under YVFFCIHTVGTPLGNCSIDV stands “inactive”; under YVIHLPKCTKLWMWANCFLW, -0.215 ± 0.62; under YVLIVNWIRSK, 4.42 ± 0.075.
As for YVRGSGMAPGD, the amyloid nucleation score result was “inactive”.
Substance YVRVRSIDVLQQKRSLFVRD yielded an amyloid nucleation score of 0.595 ± 0.97.
Under YVTMYVRMPGRFTTTHMWLI stands -0.962 ± 0.63; under YVVFMYFAF, 5.9 ± 0.068; under YVWAAIGVRLYSRHK, -0.002 ± 1.4.
The value for YVWKMIHVYGMTLSDFTFKV was 5.19 ± 0.053; that for YVYLYGGSSQFVWYGLFSFA was 2.65 ± 0.14; that for YWAKGNCYVAFRLKWRYNCG was 1.69 ± 0.64.
Take YWCRSSLFRFMGLRYESRMY: the amyloid nucleation score was determined as 0.359 ± 0.51.
With YWLGLNMCVFSHPGCGLREI, the amyloid nucleation score stood at 6.64 ± 0.047.
YWNKITRFFCMLESNVTLHT displayed an amyloid nucleation score of 0.207 ± 1.4.
The substance YWSLYSPFYAIHSVILTICQ displayed an amyloid nucleation score of 0.496 ± 0.18.
YWSQTRFYSMALSRSDSERT came in with an amyloid nucleation score of 0.135 ± 0.27.
Turning to YWSVQG, the amyloid nucleation score is 0.647 ± 0.75.
Under YWVCE stands 0.332 ± 0.9; under YWWKMLERQTRS, 0.374 ± 0.9; under YYETLLNKDILDMWEYR, -0.393 ± 0.55.
YYGFWICFNYVGTGVKISCA yielded an amyloid nucleation score of 3.38 ± 0.075.
In the case of YYIMYYAGSFIRGEMVHRLT, the amyloid nucleation score was -0.581 ± 0.32.
The substance YYKCMATQVVGLLMSVWATY showed an amyloid nucleation score of 1.06 ± 0.85.
Take YYLIFHFDYHLVIYLW: the amyloid nucleation score was determined as 0.707 ± 0.41.
As to YYLQLIYMHKNRMLISCVCC, the amyloid nucleation score entry is “inactive”.
Take YYNNC: the amyloid nucleation score turned out to be 0.501 ± 0.39.
As to YYPNKLFEYSKWNHAAGRVR, the amyloid nucleation score amounted to 0.085 ± 0.64.
Take YYQRTPSTDRSLWFTGWNVN: the amyloid nucleation score is -0.424 ± 0.19.
YYTCSSETM came in with an amyloid nucleation score of 0.811 ± 0.39.
Regarding YYVKISLGGSLNNLWKRDWW, the amyloid nucleation score was determined as 3.54 ± 0.1.
On to YYYHVVWAQ, for which the amyloid nucleation score entry was “inactive”.
